Measurements from the supplement of paper PMC9112550, “Optimization of the antimicrobial peptide Bac7 by deep mutational scanning” (BMC Biology, 2022).

Tested on: Escherichia coli TOP10
Experiment: shrunken log2 fold change of peptide-encoding DNA abundance (4.5 h post-induction vs induction); higher = less antimicrobial activity (less host growth inhibition)
Conditions: time post-induction: 4.5 h; library: site-saturation at positions 5, 18, 19, 20
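Note: peptides expressed intracellularly from a pBAD plasmid library in pooled LB shake-flask culture, induced with 0.3% L-arabinose, DNA abundance read by NGS, three biological replicates, DESeq2 with apeglm shrinkage.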

Sequence | shrunken log2 fold change
RRIRKRPPRLPRPRPRPLDDPRP | 0.227
RRIRKRPPRLPRPRPRPLDNPRP | 0.0829
RRIRKRPPRLPRPRPRPLDRPRP | -0.0461
RRIRKRPPRLPRPRPRPLEFPRP | 0.124
RRIRKRPPRLPRPRPRPLEYPRP | -0.123
RRIRKRPPRLPRPRPRPLGNPRP | 0.094
RRIRKRPPRLPRPRPRPLGPPRP | 0.749
RRIRKRPPRLPRPRPRPLGYPRP | 0.202
RRIRKRPPRLPRPRPRPLHSPRP | 0.0787
RRIRKRPPRLPRPRPRPLINPRP | -0.149
RRIRKRPPRLPRPRPRPLLWPRP | 0.443
RRIRKRPPRLPRPRPRPLMRPRP | 1.35
RRIRKRPPRLPRPRPRPLNAPRP | 0.731
RRIRKRPPRLPRPRPRPLNQPRP | -0.128
RRIRKRPPRLPRPRPRPLNSPRP | 0.00355
RRIRKRPPRLPRPRPRPLNWPRP | 0.0951
RRIRKRPPRLPRPRPRPLQMPRP | -0.0261
RRIRKRPPRLPRPRPRPLSSPRP | 0.115
RRIRKRPPRLPRPRPRPLTCPRP | -0.000599
RRIRKRPPRLPRPRPRPLTFPRP | 0.299
RRIRKRPPRLPRPRPRPLTMPRP | 0.185
RRIRKRPPRLPRPRPRPLTQPRP | 0.198
RRIRKRPPRLPRPRPRPLVHPRP | 0.0415
RRIRKRPPRLPRPRPRPLWCPRP | 0.0281
RRIRKRPPRLPRPRPRPLWHPRP | 0.0951

Sequence | shrunken log2 fold change
RRIRKRPPRLPRPRPRPLWKPRP | -0.206
RRIRKRPPRLPRPRPRPLYPPRP | -0.177
RRIRKRPPRLPRPRPRPMAPPRP | 0.0811
RRIRKRPPRLPRPRPRPMAQPRP | -0.0932
RRIRKRPPRLPRPRPRPMATPRP | 0.329
RRIRKRPPRLPRPRPRPMCDPRP | -0.0708
RRIRKRPPRLPRPRPRPMCHPRP | -0.0182
RRIRKRPPRLPRPRPRPMCKPRP | 0.0429
RRIRKRPPRLPRPRPRPMCPPRP | 0.199
RRIRKRPPRLPRPRPRPMDQPRP | 0.0935
RRIRKRPPRLPRPRPRPMGLPRP | -0.000777
RRIRKRPPRLPRPRPRPMGVPRP | 0.196
RRIRKRPPRLPRPRPRPMHNPRP | -0.136
RRIRKRPPRLPRPRPRPMIEPRP | 0.0881
RRIRKRPPRLPRPRPRPMIHPRP | -0.00347
RRIRKRPPRLPRPRPRPMIYPRP | -0.718
RRIRKRPPRLPRPRPRPMKSPRP | 0.37
RRIRKRPPRLPRPRPRPMMCPRP | 0.0781
RRIRKRPPRLPRPRPRPMMDPRP | 0.0443
RRIRKRPPRLPRPRPRPMMKPRP | 1.05
RRIRKRPPRLPRPRPRPMMYPRP | -0.00208
RRIRKRPPRLPRPRPRPMPDPRP | 0.525
RRIRKRPPRLPRPRPRPMPEPRP | -0.0371
RRIRKRPPRLPRPRPRPMPQPRP | 0.0873
RRIRKRPPRLPRPRPRPMPYPRP | -0.0398

Sequence | shrunken log2 fold change
RRIRKRPPRLPRPRPRPMQSPRP | 0.995
RRIRKRPPRLPRPRPRPMREPRP | 1.4
RRIRKRPPRLPRPRPRPMSDPRP | 0.364
RRIRKRPPRLPRPRPRPMSGPRP | -0.211
RRIRKRPPRLPRPRPRPMSIPRP | -0.0141
RRIRKRPPRLPRPRPRPMSMPRP | 0.0472
RRIRKRPPRLPRPRPRPMSTPRP | 0.41
RRIRKRPPRLPRPRPRPMSWPRP | 5.25
RRIRKRPPRLPRPRPRPMVCPRP | 0.00938
RRIRKRPPRLPRPRPRPMVHPRP | -0.079
RRIRKRPPRLPRPRPRPMYDPRP | -0.127
RRIRKRPPRLPRPRPRPMYVPRP | -0.0793
RRIRKRPPRLPRPRPRPNADPRP | 0.0182
RRIRKRPPRLPRPRPRPNCEPRP | 0.082
RRIRKRPPRLPRPRPRPNCSPRP | 0.149
RRIRKRPPRLPRPRPRPNDKPRP | -0.0282
RRIRKRPPRLPRPRPRPNDPPRP | -0.0515
RRIRKRPPRLPRPRPRPNDSPRP | -0.042
RRIRKRPPRLPRPRPRPNFAPRP | 0.155
RRIRKRPPRLPRPRPRPNFQPRP | 0.287
RRIRKRPPRLPRPRPRPNFWPRP | -0.152
RRIRKRPPRLPRPRPRPNHKPRP | -0.203
RRIRKRPPRLPRPRPRPNHWPRP | 0.0915
RRIRKRPPRLPRPRPRPNKAPRP | 0.0692
RRIRKRPPRLPRPRPRPNKNPRP | 0.125

Sequence | shrunken log2 fold change
RRIRKRPPRLPRPRPRPNLLPRP | -0.263
RRIRKRPPRLPRPRPRPNLVPRP | -0.0428
RRIRKRPPRLPRPRPRPNLWPRP | 0.492
RRIRKRPPRLPRPRPRPNPWPRP | 0.00515
RRIRKRPPRLPRPRPRPNQDPRP | -0.184
RRIRKRPPRLPRPRPRPNRWPRP | 0.398
RRIRKRPPRLPRPRPRPNVLPRP | -0.112
RRIRKRPPRLPRPRPRPNWKPRP | 0.363
RRIRKRPPRLPRPRPRPNYGPRP | -0.226
RRIRKRPPRLPRPRPRPPACPRP | 0.197
RRIRKRPPRLPRPRPRPPAHPRP | 0.808
RRIRKRPPRLPRPRPRPPALPRP | 0.57
RRIRKRPPRLPRPRPRPPCKPRP | -0.242
RRIRKRPPRLPRPRPRPPCLPRP | 0.123
RRIRKRPPRLPRPRPRPPCNPRP | 0.189
RRIRKRPPRLPRPRPRPPCQPRP | 0.47
RRIRKRPPRLPRPRPRPPCVPRP | 0.443
RRIRKRPPRLPRPRPRPPCWPRP | 1.03
RRIRKRPPRLPRPRPRPPCYPRP | 0.202
RRIRKRPPRLPRPRPRPPDEPRP | 1.89
RRIRKRPPRLPRPRPRPPDMPRP | 0.469
RRIRKRPPRLPRPRPRPPDTPRP | 0.896
RRIRKRPPRLPRPRPRPPEAPRP | 0.948
RRIRKRPPRLPRPRPRPPEWPRP | 1.19
RRIRKRPPRLPRPRPRPPFAPRP | 0.745

Sequence | shrunken log2 fold change
RRIRKRPPRLPRPRPRPPIMPRP | -0.0359
RRIRKRPPRLPRPRPRPPKCPRP | 0.069
RRIRKRPPRLPRPRPRPPKMPRP | 0.383
RRIRKRPPRLPRPRPRPPLPPRP | 0.74
RRIRKRPPRLPRPRPRPPMNPRP | 0.123
RRIRKRPPRLPRPRPRPPNVPRP | 0.197
RRIRKRPPRLPRPRPRPPQEPRP | 0.0788
RRIRKRPPRLPRPRPRPPQGPRP | 0.469
RRIRKRPPRLPRPRPRPPQIPRP | 0.661
RRIRKRPPRLPRPRPRPPSFPRP | 0.288
RRIRKRPPRLPRPRPRPPSGPRP | 1.1
RRIRKRPPRLPRPRPRPPSQPRP | 0.866
RRIRKRPPRLPRPRPRPPSWPRP | 0.401
RRIRKRPPRLPRPRPRPPTKPRP | 0.12
RRIRKRPPRLPRPRPRPPVDPRP | 0.0616
RRIRKRPPRLPRPRPRPPVQPRP | 0.83
RRIRKRPPRLPRPRPRPPWEPRP | 1.23
RRIRKRPPRLPRPRPRPPWHPRP | 0.349
RRIRKRPPRLPRPRPRPQADPRP | 0.0626
RRIRKRPPRLPRPRPRPQALPRP | 0.228
RRIRKRPPRLPRPRPRPQCTPRP | -0.0504
RRIRKRPPRLPRPRPRPQDMPRP | -0.036
RRIRKRPPRLPRPRPRPQFNPRP | -0.281
RRIRKRPPRLPRPRPRPQGAPRP | 0.451
RRIRKRPPRLPRPRPRPQGVPRP | -0.0162

Sequence | shrunken log2 fold change
RRIRKRPPRLPRPRPRPQHFPRP | 0.0698
RRIRKRPPRLPRPRPRPQKWPRP | 0.0282
RRIRKRPPRLPRPRPRPQLEPRP | 0.327
RRIRKRPPRLPRPRPRPQLRPRP | 0.2
RRIRKRPPRLPRPRPRPQMIPRP | -0.14
RRIRKRPPRLPRPRPRPQMKPRP | -0.0666
RRIRKRPPRLPRPRPRPQMNPRP | 0.104
RRIRKRPPRLPRPRPRPQPPPRP | 0.672
RRIRKRPPRLPRPRPRPQPRPRP | 0.752
RRIRKRPPRLPRPRPRPQQPPRP | -0.041
RRIRKRPPRLPRPRPRPQRGPRP | -0.0338
RRIRKRPPRLPRPRPRPQRSPRP | 0.392
RRIRKRPPRLPRPRPRPQSDPRP | 0.247
RRIRKRPPRLPRPRPRPQSVPRP | 0.139
RRIRKRPPRLPRPRPRPQTQPRP | 0.26
RRIRKRPPRLPRPRPRPQTSPRP | -0.122
RRIRKRPPRLPRPRPRPQWGPRP | 0.227
RRIRKRPPRLPRPRPRPQWMPRP | -0.307
RRIRKRPPRLPRPRPRPQYFPRP | -0.0337
RRIRKRPPRLPRPRPRPRADPRP | 0.511
RRIRKRPPRLPRPRPRPRAKPRP | 0.173
RRIRKRPPRLPRPRPRPRASPRP | 0.675
RRIRKRPPRLPRPRPRPRCIPRP | -0.187
RRIRKRPPRLPRPRPRPRFRPRP | 0.276
RRIRKRPPRLPRPRPRPRHCPRP | 0.0472
